Here are results for one substance from patent US20210122826A1.

For assay [1], the target named is Human CD209 (human) (UniProt Q9NNX6). Nature of the assay: flow, Jurkat, 100 nM Ab.
Assay [2] deals with Human CD94 (human) (UniProt Q13241). The experiment in a line: flow, Jurkat, 100 nM Ab.
In assay [3] the target is Human Clec10A (human) (UniProt Q8IUN9). The experiment in a line: flow, Jurkat, 100 nM Ab.
For assay [4], the target named is Human Clec12B (human) (UniProt Q2HXU8). Nature of the assay: flow, Jurkat, 100 nM Ab.
Sequence of Human Clec12B (human) (Q2HXU8 whole entry): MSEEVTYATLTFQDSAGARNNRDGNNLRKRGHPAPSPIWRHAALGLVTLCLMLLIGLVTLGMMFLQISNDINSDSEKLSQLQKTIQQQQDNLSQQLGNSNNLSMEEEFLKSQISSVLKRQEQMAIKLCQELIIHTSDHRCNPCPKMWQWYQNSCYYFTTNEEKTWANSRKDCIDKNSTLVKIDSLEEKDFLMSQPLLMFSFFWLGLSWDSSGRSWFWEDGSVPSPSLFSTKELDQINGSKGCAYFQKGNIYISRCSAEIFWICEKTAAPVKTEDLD
In assay [5] the target is Human Clec4E (human) (UniProt Q9ULY5). Nature of the assay: flow, Jurkat, 100 nM Ab.
Sequence of Human Clec4E (human) (Q9ULY5 whole entry): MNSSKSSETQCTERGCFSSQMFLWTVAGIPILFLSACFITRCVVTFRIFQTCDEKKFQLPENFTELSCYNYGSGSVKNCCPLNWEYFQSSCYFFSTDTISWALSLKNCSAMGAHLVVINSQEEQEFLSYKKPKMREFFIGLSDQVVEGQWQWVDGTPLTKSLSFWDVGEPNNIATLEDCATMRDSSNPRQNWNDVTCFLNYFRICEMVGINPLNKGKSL
Assay [6] concerns the target Human Clec5A (human) (UniProt Q9NY25). Nature of the assay: flow, Jurkat, 100 nM Ab.
The target in assay [7] is Human Clec7A (human) (UniProt Q9BXN2). The experiment in a line: flow, Jurkat, 100 nM Ab.
Sequence of Human Clec7A (human) (Q9BXN2 whole entry): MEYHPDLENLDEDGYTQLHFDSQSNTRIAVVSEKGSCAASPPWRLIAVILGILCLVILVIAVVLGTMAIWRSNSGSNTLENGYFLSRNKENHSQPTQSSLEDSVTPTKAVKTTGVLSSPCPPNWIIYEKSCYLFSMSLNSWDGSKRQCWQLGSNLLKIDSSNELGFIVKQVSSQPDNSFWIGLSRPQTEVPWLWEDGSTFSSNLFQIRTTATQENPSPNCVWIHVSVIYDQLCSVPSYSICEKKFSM
For assay [8], the target named is Human Clec9A (human) (UniProt Q6UXN8). The experiment in a line: flow, Jurkat, 100 nM Ab.
Sequence of Human Clec9A (human) (Q6UXN8 whole entry): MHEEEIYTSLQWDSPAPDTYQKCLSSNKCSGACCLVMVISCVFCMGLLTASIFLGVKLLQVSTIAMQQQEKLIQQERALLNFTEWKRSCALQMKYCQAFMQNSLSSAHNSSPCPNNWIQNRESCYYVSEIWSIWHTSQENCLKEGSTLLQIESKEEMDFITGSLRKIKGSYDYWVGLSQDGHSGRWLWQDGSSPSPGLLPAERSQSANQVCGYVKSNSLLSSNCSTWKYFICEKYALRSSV
The target in assay [9] is Human KLRF1 (human) (UniProt Q9NZS2). The experiment in a line: flow, Jurkat, 100 nM Ab.
Sequence of Human KLRF1 (human) (Q9NZS2 whole entry): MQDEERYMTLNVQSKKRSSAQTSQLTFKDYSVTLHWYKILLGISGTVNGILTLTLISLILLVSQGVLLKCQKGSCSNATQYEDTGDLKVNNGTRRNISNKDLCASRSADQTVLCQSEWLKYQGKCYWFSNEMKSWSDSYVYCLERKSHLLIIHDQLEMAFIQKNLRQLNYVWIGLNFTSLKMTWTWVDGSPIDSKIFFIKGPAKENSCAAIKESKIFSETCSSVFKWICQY
Assay [10] addresses Human KLRF2 (human) (UniProt D3W0D1). The experiment in a line: flow, Jurkat, 100 nM Ab.
The target in assay [11] is Human KLRG1 (human) (UniProt Q96E93). The experiment in a line: flow, Jurkat, 100 nM Ab.
Sequence of Human KLRG1 (human) (Q96E93 whole entry): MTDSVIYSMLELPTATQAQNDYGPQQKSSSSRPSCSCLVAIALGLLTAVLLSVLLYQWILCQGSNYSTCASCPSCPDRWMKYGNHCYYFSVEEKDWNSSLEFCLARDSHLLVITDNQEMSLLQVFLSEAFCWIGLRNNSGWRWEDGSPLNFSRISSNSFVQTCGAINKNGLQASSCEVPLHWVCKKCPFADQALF
Assay [12] has as its target Human OLR1 (human) (UniProt P78380). The experiment in a line: flow, Jurkat, 100 nM Ab.
The target of assay [13] is cynomolgus CD161 (cynomolgus). The experiment in a line: flow, Jurkat, 100 nM Ab.
Sequence of cynomolgus CD161 (cynomolgus) (chain, as listed by the source limits assumed): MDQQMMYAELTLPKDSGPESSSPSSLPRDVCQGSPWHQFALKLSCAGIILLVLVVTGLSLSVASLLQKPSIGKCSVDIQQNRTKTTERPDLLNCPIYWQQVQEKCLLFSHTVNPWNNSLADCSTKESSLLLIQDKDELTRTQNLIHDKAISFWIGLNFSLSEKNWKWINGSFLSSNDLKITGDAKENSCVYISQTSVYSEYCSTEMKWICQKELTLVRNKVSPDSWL
Assay [14] deals with human CD161 (human) (UniProt Q12918). Nature of the assay: flow, Jurkat, 100 nM Ab.
Assay [15] deals with cynomolgus CD161 (cynomolgus). Nature of the assay: flow, Jurkat, Ab titration.
Assay [16] addresses human CD161 (human) (UniProt Q12918). The experiment in a line: flow, Jurkat, Ab titration.
For assay [17] the target is unchanged. Nature of the assay: flow cytometry titration of antibody on Jurkat hCD161+ cells, fluorescent secondary antibody, MFI against Ab concentration (log [M]). (Flow cytometry measures light scatter and fluorescence of single cells or particles in a stream.)
Assay [18] addresses cynomolgus CD161 (cynomolgus). Nature of the assay: flow cytometry titration of antibody on Jurkat cynoCD161+ cells, fluorescent secondary antibody, MFI against concentration (log [M]).

Sequence of Human KLRF2 (human) (D3W0D1 whole entry): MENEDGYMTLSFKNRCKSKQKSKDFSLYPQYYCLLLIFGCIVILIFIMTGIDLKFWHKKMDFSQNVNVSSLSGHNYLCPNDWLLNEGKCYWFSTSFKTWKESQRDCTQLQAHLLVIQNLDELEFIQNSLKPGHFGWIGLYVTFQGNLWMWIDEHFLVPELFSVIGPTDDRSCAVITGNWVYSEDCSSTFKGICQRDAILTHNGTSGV
Sequence of Human CD94 (human) (Q13241 whole entry): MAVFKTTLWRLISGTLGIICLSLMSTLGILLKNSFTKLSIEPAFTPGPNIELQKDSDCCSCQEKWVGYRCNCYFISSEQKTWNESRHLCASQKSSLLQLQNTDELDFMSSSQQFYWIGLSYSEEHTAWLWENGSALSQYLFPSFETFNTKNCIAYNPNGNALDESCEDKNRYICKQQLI
Sequence of Human Clec10A (human) (Q8IUN9 whole entry): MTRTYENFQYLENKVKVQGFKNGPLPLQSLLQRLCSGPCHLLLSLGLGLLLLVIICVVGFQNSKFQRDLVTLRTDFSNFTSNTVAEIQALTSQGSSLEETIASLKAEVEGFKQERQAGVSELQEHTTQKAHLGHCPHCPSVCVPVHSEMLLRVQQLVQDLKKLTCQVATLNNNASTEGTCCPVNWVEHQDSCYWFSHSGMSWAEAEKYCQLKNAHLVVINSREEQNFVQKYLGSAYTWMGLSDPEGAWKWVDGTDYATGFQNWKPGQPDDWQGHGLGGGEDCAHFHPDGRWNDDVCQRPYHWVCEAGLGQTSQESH
Sequence of Human CD209 (human) (Q9NNX6 whole entry): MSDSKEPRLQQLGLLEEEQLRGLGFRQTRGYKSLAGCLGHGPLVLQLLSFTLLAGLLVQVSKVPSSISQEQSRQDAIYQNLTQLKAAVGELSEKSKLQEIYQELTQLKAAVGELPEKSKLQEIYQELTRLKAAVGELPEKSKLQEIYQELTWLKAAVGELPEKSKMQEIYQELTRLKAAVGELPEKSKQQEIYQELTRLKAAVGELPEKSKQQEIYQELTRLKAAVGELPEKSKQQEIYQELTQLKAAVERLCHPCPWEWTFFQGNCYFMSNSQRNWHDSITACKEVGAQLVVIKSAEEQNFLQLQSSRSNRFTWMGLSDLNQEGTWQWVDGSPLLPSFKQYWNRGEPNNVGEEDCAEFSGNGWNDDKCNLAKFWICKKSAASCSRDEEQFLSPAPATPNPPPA
Sequence of Human Clec5A (human) (Q9NY25 whole entry): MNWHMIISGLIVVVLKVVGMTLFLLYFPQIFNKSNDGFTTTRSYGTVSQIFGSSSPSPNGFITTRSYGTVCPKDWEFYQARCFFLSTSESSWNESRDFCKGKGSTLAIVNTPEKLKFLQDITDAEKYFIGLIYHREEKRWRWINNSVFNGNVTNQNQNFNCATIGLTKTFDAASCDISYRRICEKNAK

As to mouse anti-human CD161 antibody HP-3G10, the MFI normalized to WT is 1.01 in assay [1]; 1 in [2]; 1 in [3]; 1.1 in assay [4]; 1 in assay [5]; 1.08 in assay [6]. Besides, the MFI normalized to WT came out at 1.16 in [7]; 1.09 in assay [8]; 0.94 in [9]; 1.07 in assay [10]; 1.07 in assay [11]; 1.01 in assay [12]. Besides, the figures for the MFI normalized to WT in assay [13] and in assay [14] were 46.7 and 75.2, respectively. The figures for the Kd in assay [15] and in assay [16] were 1.18 nM and 1.67 nM, respectively. Also, the EC50 (read off the curve) (in general, the concentration that produces a half-maximal response) in assay [17] was 2 nM; in assay [18], 1 nM.
